From the supplement of paper PMC10126150
± gives the standard deviation of the averaged measurements.
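Also: ATP exposure 15 min at 22 °C before imaging.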

These sequences were tested on ATP (assay: switch fluorescence ratio, 500 uM ATP over buffer (Cy3 cluster intensity, sum of 5 cycles each) (fold (ratio)); higher = stronger signal-on switching upon ATP binding; sequences stand for … in TCGTCGGCAGCGTCAGATGTGTATAAGAGACAGTTTTTTTTTTTTTTTTTTTTTTTTT…TC). Details: aptamer strand: ATP DNA aptamer (quencher-CACCTGGGGGAGTATTGCGGAGGAAGG + anchor), 100 nM annealed; ATP concentration: 500 uM.
Method in brief: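 Clusters with intensities outside 100-1000 RFU were excluded. The remaining Cy3-labelled switching-strand clusters on a modified Illumina MiSeq flow-cell had been annealed to 100 nM quencher-labelled ATP aptamer and imaged in selection buffer, then after 15 min with 500 uM ATP at 22 °C, for five cycles separated by NaOH stripping and re-annealing. The fluorescence ratio, averaged per switch-domain sequence, is each cluster's summed target-cycle Cy3 intensity over its summed buffer-cycle Cy3 intensity.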
GGGTTTACGA showed a switch fluorescence ratio of 1.01 ± 0.074. Work on TCTCTTATGT yielded a switch fluorescence ratio of 0.985 ± 0.033. In the case of TTGGGCGACG, the switch fluorescence ratio is reported as 1.036 ± 0.0032. Work on CCTATGGGTT yielded a switch fluorescence ratio of 1.05 ± 0.015. Work on ACTGGGGACG yielded a switch fluorescence ratio of 1.02 ± 0.053. In the case of TCGGGTTTGT, the switch fluorescence ratio is reported as 1.01 ± 0.011. Sequence GCTAAAATAG has a switch fluorescence ratio of 1.11 ± 0.15. TTTTAAGGTC was tested, and the switch fluorescence ratio was 1.019 ± 0.0034. With AACAAGTAAT the switch fluorescence ratio was 1 ± 0.018. In the case of GAAGAGGGGG, the switch fluorescence ratio is reported as 0.991 ± 0.043. Sequence TATACTTTTT has a switch fluorescence ratio of 1.01 ± 0.021. In the case of TTTTGCAAAT, the switch fluorescence ratio is reported as 1.13 ± 0.11. For ATGCTCGCGG, the switch fluorescence ratio was 0.983 ± 0.038. With GTTAATTATT the switch fluorescence ratio was 1.06 ± 0.085. TGGGTTATAT showed a switch fluorescence ratio of 0.979 ± 0.011. Sequence GTTTTCCACA has a switch fluorescence ratio of 0.987 ± 0.067. In the case of TAATGGTTAG, the switch fluorescence ratio is reported as 1.016 ± 0.0048. For TTGGATTTTT, the switch fluorescence ratio was 0.992 ± 0.041. Sequence TGGGGCGTTT has a switch fluorescence ratio of 1.01 ± 0.022. GTTGTTTTCA was tested, and the switch fluorescence ratio was 0.993 ± 0.024. Sequence AATTCATTTT has a switch fluorescence ratio of 1.03 ± 0.059. With CGCATGATAG the switch fluorescence ratio was 1.24 ± 0.036. CGCATGTCTC showed a switch fluorescence ratio of 1.81 ± 0.11. In the case of CTGGTGGACG, the switch fluorescence ratio is reported as 1.041 ± 0.0042. TTGTGAGGCA was tested, and the switch fluorescence ratio was 1.006 ± 0.0066. In the case of TCGATGGGGG, the switch fluorescence ratio is reported as 0.942 ± 0.013. For TAGAGAGCT, the switch fluorescence ratio was 1.02 ± 0.015. GAGCGTGACG gave a switch fluorescence ratio of 1 ± 0.045. GTCATACCTT was tested, and the switch fluorescence ratio was 1.2 ± 0.1. CAATATATTT gave a switch fluorescence ratio of 0.982 ± 0.0049. With TCGTTGGTCC the switch fluorescence ratio was 1.026 ± 0.0048. For GCTTTTTGCT, the switch fluorescence ratio was 1.012 ± 0.0054. For AACTTTTATG, the switch fluorescence ratio was 1 ± 0.026. GGTTTAGGGA gave a switch fluorescence ratio of 0.996 ± 0.039. TGATTCAAAT showed a switch fluorescence ratio of 1.02 ± 0.0087. TATGATAGGC gave a switch fluorescence ratio of 0.953 ± 0.058. TAATTAACTT was tested, and the switch fluorescence ratio was 1.09 ± 0.12. For ATCATCTTCG, the switch fluorescence ratio was 1.02 ± 0.015. TAGGTAGTTT was tested, and the switch fluorescence ratio was 0.969 ± 0.032. Sequence TGGGGTGATC has a switch fluorescence ratio of 1 ± 0.029. With CGAGTCTCGT the switch fluorescence ratio was 1.03 ± 0.04. Work on GTCAGCAAAT yielded a switch fluorescence ratio of 1.05 ± 0.02. Sequence GGTACTGAGC has a switch fluorescence ratio of 1.03 ± 0.061. TAGGACAGCG gave a switch fluorescence ratio of 0.969 ± 0.078. In the case of AAAATGCGCA, the switch fluorescence ratio is reported as 1.02 ± 0.037. With ATGTACTTGG the switch fluorescence ratio was 1.02 ± 0.013. TGGGTGCAAA was tested, and the switch fluorescence ratio was 1.01 ± 0.033. Work on AGGAATATAC yielded a switch fluorescence ratio of 1.11 ± 0.066. Sequence TATTCGGGGT has a switch fluorescence ratio of 0.99 ± 0.028. For TATTTATTTG, the switch fluorescence ratio was 1.02 ± 0.045. TCTGAGTCCA was tested, and the switch fluorescence ratio was 1.032 ± 0.0022. Sequence GGTTCAGATG has a switch fluorescence ratio of 1.0081 ± 0.00081. Sequence TTTCGGGGAT has a switch fluorescence ratio of 1.03 ± 0.038. TCACATAGTT gave a switch fluorescence ratio of 1.01 ± 0.0061. In the case of GGTGGAAGCT, the switch fluorescence ratio is reported as 1.01 ± 0.025. Work on CGGGATGATC yielded a switch fluorescence ratio of 0.9966 ± 0.0069. ACCGGAGTTC showed a switch fluorescence ratio of 1.23 ± 0.014. In the case of GATTATTTGG, the switch fluorescence ratio is reported as 0.986 ± 0.011. With GCTGCATATA the switch fluorescence ratio was 1.066 ± 0.0095. For CGGTAGGTTT, the switch fluorescence ratio was 0.9898 ± 0.0057. For ACCTACGAGT, the switch fluorescence ratio was 1.37 ± 0.044. In the case of TATTTACCGC, the switch fluorescence ratio is reported as 1.13 ± 0.034. TCATTTTGAA was tested, and the switch fluorescence ratio was 1.01 ± 0.0012. AGCAGGACCC gave a switch fluorescence ratio of 1.23 ± 0.054. With GATCAAAGGG the switch fluorescence ratio was 1.01 ± 0.021. With CCGGGGAGTC the switch fluorescence ratio was 1.04 ± 0.044. GATTTTGTAA showed a switch fluorescence ratio of 1.012 ± 0.004. ACGTCAGTCA gave a switch fluorescence ratio of 0.976 ± 0.023. For TAAGAGGGTT, the switch fluorescence ratio was 1 ± 0.022. With GGTTGGATTT the switch fluorescence ratio was 0.978 ± 0.017. In the case of AGGGATTTGG, the switch fluorescence ratio is reported as 0.987 ± 0.014. AGGGATTGC showed a switch fluorescence ratio of 0.973 ± 0.027. Work on TGCTAACGTG yielded a switch fluorescence ratio of 0.977 ± 0.0057. With TTGGGTTGTG the switch fluorescence ratio was 1.01 ± 0.041. Work on CGTGCACCGG yielded a switch fluorescence ratio of 1 ± 0.031. GGGGCAGAGG gave a switch fluorescence ratio of 0.997 ± 0.043. TCTTGGGCAT was tested, and the switch fluorescence ratio was 1.01 ± 0.04. GTTCAAAGCG showed a switch fluorescence ratio of 0.999 ± 0.029. TGCGTCTGAT showed a switch fluorescence ratio of 1.001 ± 0.0082. GCGTCGGGTG gave a switch fluorescence ratio of 1.019 ± 0.008. GATTCGAATC showed a switch fluorescence ratio of 1 ± 0.034. TGCATTCAGT showed a switch fluorescence ratio of 0.99 ± 0.048. AAATTAGGCG showed a switch fluorescence ratio of 0.975 ± 0.021. GGTATCTAGA showed a switch fluorescence ratio of 1.02 ± 0.0067. ATGTTTGGGC showed a switch fluorescence ratio of 0.9597 ± 0.0085. GCTTGCCTAG gave a switch fluorescence ratio of 0.962 ± 0.038. GGGGGGACTA gave a switch fluorescence ratio of 1.03 ± 0.031. With CAGATCAAGT the switch fluorescence ratio was 1.016 ± 0.0034. For TACAGCGCGT, the switch fluorescence ratio was 1.01 ± 0.021. TTGAGGGCCT was tested, and the switch fluorescence ratio was 0.979 ± 0.021. For TGGATTGGGC, the switch fluorescence ratio was 0.973 ± 0.038. ACTTTATGTT was tested, and the switch fluorescence ratio was 1.041 ± 0.0015. With GGATTTGGAG the switch fluorescence ratio was 0.993 ± 0.024. ACGTTAAGTT showed a switch fluorescence ratio of 1.1 ± 0.029. With AAGTTATGGC the switch fluorescence ratio was 0.9598 ± 0.0046. TCGACTCAGG was tested, and the switch fluorescence ratio was 1.05 ± 0.028. For TGGGTGTCAC, the switch fluorescence ratio was 0.9868 ± 0.005. GTTTAGATGT gave a switch fluorescence ratio of 0.994 ± 0.02. With AAGTGGGGGT the switch fluorescence ratio was 1 ± 0.039. In the case of GGGGTCGGCC, the switch fluorescence ratio is reported as 0.995 ± 0.018. Sequence GATGAGCGCC has a switch fluorescence ratio of 1.03 ± 0.037. GGATAGGATT was tested, and the switch fluorescence ratio was 1.025 ± 0.0054. GGCCAGGGTG gave a switch fluorescence ratio of 2.29 ± 0.07. For GAGGGGTATT, the switch fluorescence ratio was 0.986 ± 0.016. Work on TCGACGATTC yielded a switch fluorescence ratio of 1.52 ± 0.14. TTTGGGGAGG gave a switch fluorescence ratio of 1.02 ± 0.058. GGGCTGAAGG showed a switch fluorescence ratio of 1.004 ± 0.01. TTGGCATAGT was tested, and the switch fluorescence ratio was 0.989 ± 0.031. In the case of CCTCGTTATT, the switch fluorescence ratio is reported as 1.27 ± 0.027. In the case of ATAAGAACCG, the switch fluorescence ratio is reported as 1.07 ± 0.017. Work on CTGGAGGGGG yielded a switch fluorescence ratio of 1.01 ± 0.032. Work on GTATTATTAA yielded a switch fluorescence ratio of 1.05 ± 0.0015. TTTACCTATA gave a switch fluorescence ratio of 1.02 ± 0.013. In the case of CGACCGGGTA, the switch fluorescence ratio is reported as 1.02 ± 0.023. With ATAATTTTAT the switch fluorescence ratio was 1.08 ± 0.13. CTTGGCGAGA showed a switch fluorescence ratio of 1.01 ± 0.018. With GACGTTTCTG the switch fluorescence ratio was 1.01 ± 0.098. Sequence ACATGGGGCG has a switch fluorescence ratio of 1 ± 0.054. For GGGTTGGTTA, the switch fluorescence ratio was 1 ± 0.04. Sequence GCATAAACGC has a switch fluorescence ratio of 1.06 ± 0.044. Sequence GACGTTAATA has a switch fluorescence ratio of 1.41 ± 0.04. Work on TAAACTTG yielded a switch fluorescence ratio of 1.04 ± 0.086. For CCTTTCTTTT, the switch fluorescence ratio was 1.04 ± 0.049. GGTTATTTTG gave a switch fluorescence ratio of 1.01 ± 0.015. For TTTGACGGGA, the switch fluorescence ratio was 1.01 ± 0.012. AGTGTTACG was tested, and the switch fluorescence ratio was 1.01 ± 0.04. Work on GGTGTGTTGC yielded a switch fluorescence ratio of 0.998 ± 0.06. Work on AATTGTGGTT yielded a switch fluorescence ratio of 0.97 ± 0.043. GAGTAGTATA was tested, and the switch fluorescence ratio was 0.992 ± 0.049. TTGTTGA showed a switch fluorescence ratio of 0.984 ± 0.042. AGTCCTTAGC gave a switch fluorescence ratio of 1 ± 0.071. With GGGGATTCAA the switch fluorescence ratio was 0.988 ± 0.018. CGGGGCACCG showed a switch fluorescence ratio of 0.9868 ± 0.0032. Sequence TAATCTTTTG has a switch fluorescence ratio of 0.986 ± 0.026. GTAATCGCAA showed a switch fluorescence ratio of 2.65 ± 0.15. ATTTTGGCAG showed a switch fluorescence ratio of 0.99 ± 0.049. GGGAGTAGGT was tested, and the switch fluorescence ratio was 1.008 ± 0.0094. Sequence GGGATGTTGG has a switch fluorescence ratio of 1.006 ± 0.0071. For TGTGGCAATT, the switch fluorescence ratio was 1.07 ± 0.037. TACTTTGTC was tested, and the switch fluorescence ratio was 1.03 ± 0.021. In the case of TTGGGAGAAA, the switch fluorescence ratio is reported as 0.9804 ± 0.0092. Sequence CTTGGGATCA has a switch fluorescence ratio of 0.971 ± 0.011. ATCTGTGGTT was tested, and the switch fluorescence ratio was 0.978 ± 0.023. TCGGGGAAAG gave a switch fluorescence ratio of 1.04 ± 0.082. TTTACAGGAT was tested, and the switch fluorescence ratio was 0.993 ± 0.024. Sequence TAAGGTAGG has a switch fluorescence ratio of 0.967 ± 0.029. For AGGATAAAGT, the switch fluorescence ratio was 0.9875 ± 0.0077. In the case of TGATAGCCAG, the switch fluorescence ratio is reported as 0.9605 ± 0.0072. GGGCATGTTG was tested, and the switch fluorescence ratio was 1.02 ± 0.03. GGCTTTTTTA was tested, and the switch fluorescence ratio was 1.05 ± 0.028. For GGTGTTGGCT, the switch fluorescence ratio was 1.02 ± 0.059. In the case of GGTGGATGCC, the switch fluorescence ratio is reported as 1.02 ± 0.04. CGTTTATGAG showed a switch fluorescence ratio of 1.022 ± 0.0067. AGTTATCGAA gave a switch fluorescence ratio of 1.009 ± 0.0036. TGATATTGTG was tested, and the switch fluorescence ratio was 0.994 ± 0.024. In the case of GTGGGGGATG, the switch fluorescence ratio is reported as 1 ± 0.033. TTGAAATAGT was tested, and the switch fluorescence ratio was 1.01 ± 0.024.
